From FireProtDB (doi:10.1016/j.bpj.2010.04.076)

Conditions: Bacillus subtilis (strain 168), pH 7, CD, transition: 2, reversible: yes, whole UniProt chain shown

B1: Adenylate kinase wild type, P16304 (protein)
chain: MNLVLMGLPGAGKGTQGERIVEDYGIPHISTGDMFRAAMKEETPLGLEAKSYIDKGELVPDEVTIGIVKERLGKDDCERGFLLDGFPRTVAQAEALEEILEEYGKPIDYVINIEVDKDVLMERLTGRRICSVCGTTYHLVFNPPKTPGICDKDGGELYQRADDNEETVSKRLEVNMKQTQPLLDFYSEKGYLANVNGQQDIQDVYADVKDLLGGLKK
- unfolding free energy (20 °C, GdnHCl, Phosphate buffer 10mM): 3.34 kcal/mol
- Tm (Thermal, KH2PO4 10mM): 48.4 °C
